Results reported in the DeepSol protein solubility set.

Test: soluble on expression in E. coli; label from the status in PepcDB or PDB records

Sequence | soluble on expression in E. coli
AHHHHHHASAKWVCKICGYIYDEDAGDPDNGISPGTKFEELPDDWVCPICGAPKSEFEKLEDGSNPMPRKISFDPPSFIQLTRKQNKELLEFVLAEFEIYLPITTVHAYLLAKAFKGKNPKEEVQKLRDIVKIVDLTDELLGEIAEIDASLIKDGYFFTLEDLITAVSAITSKSLLVVNGNAEKYSPLRKYGLDCVNYEKFLEEVEVLAREEAKREKII | soluble
MRIAIDFDGTIVEHRYPRIGKEIPFAIATLKQLQTERHLLVLWTVREGKLLDEAVDFCRKRGLEFYAVNANHPEEEVRNDMTSPCRKVVADLYIDDLNVGKLPDWGAIYEMIHNRWSYERYLNEIHGFEKQKKISIWKRIFR | not soluble
MEVKIFNTQDVQDFLRVASGLEQEGGNPRVKQIIHRVLSDLYKAIEDLNITSDEYWAGVAYLNQLGANQEAGLLSPGLGFDHYLDMRMDAEDAALGIENATPRTIEGPLYVAGAPESVGYARMDDGSDPNGHTLILHGTIFDADGKPLPNAKVEIWHANTKGFYSHFDPTGEQQAFNMRRSIITDENGQYRVRTILPAGYGCPPEGPTQQLLNQLGRHGNRPAHIHYFVSADGHRKLTTQINVAGDPYTYDDFAYATREGLVVDAVEHTDPEAIKANDVEGPFAEMVFDLKLTRLVDGVDNQVVDRPRLAV | soluble
MGSDKIHHHHHHMIKFGEAVLGNEIKAIVNVALGKGELIENTFTNALTRGNCVFANLRPNLIVKPLTLVVPRHNIESEIQDELFQGVIQYAVAKAVADLDLDEDLKVVVSVNVPEVPITNLNKRKLFQYFYASAKLAINRALNEYPSKEKVKKEKYRALHPLVGFRDVRLEYPPYLQIALDVPTMENLEFLLQTIPNSDHIILEAGTPLIKKFGLEVIEIMREYFDGFIVADLKTLDTGRVEVRLAFEATANAVAISGVAPKSTIIKAIHECQKCGLISYLDMMNVSEPQKLYDSLKLKPDVVILHRGIDEETFGIKKEWKFKENCLLAIAGGVGVENVEELLKEYQILIVGRAITKSKDPGRVIRMFINKMGYDIDTYRLYFDEDEDIGEEL | not soluble
MSLSQRGLEALLRPKSIAVIGASMKPNRAGYLMMRNLLAGGFNGPVLPVTPAWKAVLGVLAWPDIASLPFTPDLAVLCTNASRNLALLEELGEKGCKTCIILSAPASQHEDLRACALRHNMRLLGPNSLGLLAPWQGLNASFSPVPIKRGKLAFISQSAAVSNTILDWAQQRKMGFSYFIALGDSLDIDVDELLDYLARDSKTSAILLYLEQLSDARRFVSAARSASRNKPILVIKSGRSPAAQRLLNTTAGMDPAWDAAIQRAGLLRVQDTHELFSAVETLSHMRPLRGDRLMIISNGAAPAALALDALWSRNGKLATLSEETCQKLRDALPEHVAISNPLDLRDDASSEHYIKTLDILLHSQDFDALMVIHSPSAAAPATESAQVLIEAVKHHPRSKYVSLLTNWCGEHSSQEARRLFSEAGLPTYRTPEGTITAFMHMVEYRRNQKQLRETPALPSNLTSNTAEAHLLLQQAIAEGATSLDTHEVQPILQAYGMNTLPTWIASDSTEAVHIAEQIGYPVALKLRSPDIPHKSEVQGVMLYLRTANEVQQAANAIFDRVKMAWPQARVHGLLVQSMANRAGAQELRVVVEHDPVFGPLIMLGEGGVEWRPEDQAVVALPPLNMNLARYLVIQGIKSKKIRARSALRPLDVAGLSQLLVQVSNLIVDCPEIQRLDIHPLLASGSEFTALDVTLDISPFEGDNESRLAVRPYPHQLEEWVELKNGERCLFRPILPEDEPQLQQFISRVTKEDLYYRYFSEINEFTHEDLANMTQIDYDREMAFVAVRRIDQTEEILGVTRAISDPDNIDAEFAVLVRSDLKGLGLGRRLMEKLITYTRDHGLQRLNGITMPNNRGMVALARKLGFNVDIQLEEGIVGLTLNLAQREESEGGSHHHHHH | soluble
THQMNQFYTTGAGRDIFATDEAKQVSAHLANEVDQLAQSLLKKEVYDKTKLFVADFVRQYPFADLSMIRTPAYRAWLEANQISEEDAVTTLGTMPEALGDVSDRLSLVSEQTPKIMTWKAQLLALNSSASIEKVNAALNSLQVTADSMRDFIDNNPEYMRYLAEQMAVELQPLVDDIDQKTEARLSQLGEERQALEEMVARERQEIALIITHEREKFAQDMDRVSQEVVNLAMTKLIELVKST | not soluble
MRGSHHHHHHTDPALRANSLFASTARGLEELLKTELENLGAVECQVVQGGVHFKGDTRLVYQSLMWSRLASRIMLPLGECKVYSDLDLYLGVQAINWTEMFNPGATFAVHFSGLNDTIRNSQYGAMKVKDAIVDAFTRKNLPRPNVDRDAPDIRVNVWLHKETASIALDLSGDGLHLRGYRDRAGIAPIKETLAAAIVMRSGWQPGTPLLDPMCGSGTLLIEAAMLATDRAPGLHRGRWGFSGWAQHDEAIWQEVKAEAQTRARKGLAEYSSHFYGSDSDARVIQRARTNARLAGIGELITFEVKDVAQLTNPLPKGPYGTVLSNPPYGERLDSEPALIALHSLLGRIMKNQFGGWNLSLFSASPDLLSCLQLRADKQYKAKNGPLDCVQKNYHVAESTPDSKPAMVAEDYTNRLRKNLKKFEKWARQEGIECYRLYDADLPEYNVAVDRYADWVVVQEYAPPKTIDAHKARQRLFDIIAATISVLGIAPNKLVLKTRERQKGKNQYQKLGEKGEFLEVTEYNAHLWVNLTDYLDTGLFLDHRIARRMLGQMSKGKDFLNLFSYTGSATVHAGLGGARSTTTVDMSRTYLEWAERNLRLNGLTGRAHRLIQADCLAWLREANEQFDLIFIDPPTFSNSKRMEDAFDVQRDHLALMKDLKRLLRAGGTIMFSNNKRGFRMDLDGLAKLGLKAQEITQKTLSQDFARNRQIHNCWLITAAGLCGR | soluble
MALVVEDIVKNFGEGLSETKVLKGINFEVEQGEFVILNGASGSGKTTLLTILGGLLSQTSGTVLYNDAPLFDKQHRPSDLRLEDIGFIFQSSHLVPYLKVIEQLTLVGQEAGMTKQQSSTRAIQLLKNIGLEDRLNVYPHQLSGGEKQRVAIMRAFMNNPKIILADEPTASLDADRATKVVEMIRQQIKEQQMIGIMITHDRRLFEYADRVIELEDGKITD | not soluble
MKKFLTQVFTWWNGQTLGTRFHTWRKGERVGEDEFGNVYYQGGKDSEGRTRRWVIFNGYSEASTIPPGWHGWMHHRVDTPPSKEDYRPREWQKPHLQNLTGSPLAYRPKGSIALPGAQPAERPRVTGEYDAWTPGNLEHHHHHH | not soluble
MIVMPKRLSDEIASRVRALIEEQNLEAGMKLPAERQLALQLGVSRNSLREALAKLVSEGVLVSRRGGGTFVRWQHETWSEQNIVQPLKMLMANDPDYSFDILEARHAIEASTAWHAAMRATAADKEKIRLCFDATLSEDPDLASQADVRFHLAIAEASHNVVLLQTMRGFFDVLQSSVKQSRQRMYLVPPVFSKLTEQHQAVMDAILDGNAEGARKAMMAHLSFVHTTIKRFDEDQARQARITRLPGDHNEMTRENKS | not soluble
GPGSMSATEAVVEPKAPDVCTEANERPPTESGVAAPVKRLFDLLQEDSKERVVRLLTAFRELTLLEQESLAQEMGVTLPKEEKWRAPCPLIARQPSGPSLEVRRRDPSYVALCPSVSSALRELGSKEAARRLPDADLRKLVEGALGEDGVYLTVPESDGEGCAAASERVGVVDDGKPPLLVRSRCYQALRLARDEEIETDAQYTRPRVLNVTGIPLEESDVWEWFNLLDVARNGTVGVDAFLTSVRELDRGFGTSSKVQEAFEDESRSLSVDGQLSFDKFAYLVTRFSRY | soluble
FGQYLAIRRTDALLRQQLDTLTIDTLSELEGKLPVKSNSLVIAYIRRVLESKDRPAHVQRLLADFEITADKDLAISKTLTKMGP | not soluble
MGHHHHHHSHMRKIDLCLSSEGSEVILATSSDEKHPPENIIDGNPETFWTTTGMFPQEFIICFHKHVRIERLVIQSYFVQTLKIEKSTSKEPVDFEQWIEKDLVHTEGQLQNEEIVAHGSATYLRFIIVSAFDHFASVHSVSAEGTVVSNLSS | soluble
MDSRVWLPLIGAHLLPRDISVITQMIANNNNTSISRSSTNSSKPEEKNSKKFLIERFLDDDPSPPASILSPSPKAAIPSPIINPAVEFVNGGYGVKNPLAPLISSFETTSIPCSTVSPSSLISSSKDEFQDSLTCHICGKKFGLQRLLNRHIKCHSDLKRYLCTFCGKGFNDTFDLKRHTRTHTGVRPYKCEQCEKSFTQRCSLESHLRKVHGVTHQYAYKERRSKVFVCEDCGYTDEKFEVYLSHIKVVHPFSAAYLRFTQLQKKNSSMKPEQLSKISL | not soluble
METSTIIDGGTSFVIDSEKKTITIYVKTADGSSVKAEGCTETVIESGTESTLNIKSSLIILKGNIIEFNCGGDPYTYGNQIKSLNVQGLKNLEKLNCSGNRLTELNIEGLNNLKELACRYNRLSSLDVAHLPALEFLWCTANLLTDLNLTGMSSLKRLGCNNNKLEVLNLEGLTSLEHLWCGNNLLNKLNLTDLKSLTGLNCEKNKLTELDLTGLTALEHLWCSKNLLTKLNLTKALHLQSLDCSSNMLTELNTEELNDLQYLNSSGNCLPLS | not soluble
GSHMEEKLAVSLQEALQEGDTRALREVLEEIHPQDLLALWDELKGEHRYVVLTLLPKAKAAEVLSHLSPEEQAEYLKTLPPWRLREILEELSLDDLADALQAVRKEDPAYFQRLKDLLDPRTRAEVEALARYEEDEAGGLMTPEYVAVREGMTVEEVLRFLRRAAPDAETIYYIYVVDEKGRLKGVLSLRDLIVADPRTRVAEIMNPKVVYVRTDTDQEEVARLMADYDFTVLPVVDEEGRLVGIVTVDDVLDVLEAEATEDIHKLGAVDVPDLVYSE | soluble
MPFRTIARLNPAKPKAGEEFRLQVVAQHPNEPGTRRDAEGKLIPAKYINLVEVYFEGEKVAEARPGPSTSANPLYAFKFKAEKAGTFTIKLKDTDGDTGEASVKLELV | soluble
MLASMTGYAAVSREIPQGSLALELRSVNNRYLDLQFRLPDELRALESEMRDFLGSGLTRGKVDCRLTFSSYSNSYRQQRLNRDLLQDLQIMSDEIKSIFPAAGDFSVAEILRWPGVLDSDHISIDDLRTPCMALLQTALQELVSARKREGEKLHNLLLERVQRMRQLVLDLLPGLPAILASFQERLLNSLKAAGLDEKDERIRQEFTLFANRVDVDEELSRLQGHLNEFEHILLAGGVVGKRLDFLTQELNREANTLASKSVAREVTRIAVEMKVLIEQLREQIQNIE | not soluble
RAATQVGATTMDRPEWVAVHPDKKHVFCTLTNNKNRGKEGQPVGGPNPREKNNYGQIVRWMPAQGDHTSDVFAWDLYLIAGNPTVHKGTLYAGSENISADNMFNSPDGIGFDTAGRLWIQTDGNYSNQGDFAGQGNNQMLCGDPITGEVKRFLTGPIACEITGLTFSPDHKTMFVG | not soluble
MSLDEKLRTSGVQVIGDIAWGTHFCQFYRTQEELVNVVCPYLKAGLEGNELCIWALPRDFETKKEAEGPLRRTIPKLDIYLEKGQMEIISYKDRYAEKEIPDSKKALENLIKKADYALLNGYSGLRLVQDTSWLKNDWKNLTGYEEELDIAIENRRITALCTYSSGKFDTDETIYAALSHRFVLVKKEGNWEKVENPRLKKAEERVIQPSEEVETKTEEENENLKKLLEERTVELTEAYKSLKVNEKQFLQIRKMTHIGNWKWDILTGELHWSDEVYRIFGRDPERFKATCDAFLGSVHPDDREYLINSIKKDFDEQIRNIDYRIVLPDGEERTVRTRVEITFDEENQPVRAEGIVQDITELKRIEKALQEREEQYRAFFENSMDAVLFASPDGTIHAANKAACKTFGMTEKEIIRAGRNGIVDQSDPRLKPSLEERNSTGRFKGEINHKRKDGTIFPGEVSTALFKDKNGLMKIVIIIRDITERKKAEEVLRKSEEHYRMLFTNEGHHHHHH | soluble
